In the supplement of paper PMC10724198 one finds protein stability index data, which are given here for 73 sequences.

± gives the standard deviation of the averaged measurements.

The subject of the data set is Saccharomyces cerevisiae. Put plainly: protein stability index of tFT-peptide fusion (C-terminal peptide) (PSI (0-1 scale)); higher = more stable (slower turnover). The following applies: genetic background: wild type; temperature: 30 C.
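Further: PSI is a weighted mean of sequencing reads over stability bins, variants kept only with over 10 reads, mCherry proximal and sfGFP distal, peptide attached via GGGS linker.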

Sequence WWEFSCGFVVGG had a protein stability index of 0.671 ± 0.098.
With WWGSGGREPGGS the figure was 0.739 ± 0.05.
With WWSASGGQDVLK the figure was 0.67 ± 0.061; with WYHALTLASWLS, 0.577 ± 0.021; with YAGARGPMNRGS, 0.701 ± 0.015.
Then YARLAWDFRRSP, with 0.737 ± 0.019; and YATAICRSGCLK, with 0.699 ± 0.037.
With YCAMVSVGVVGG, the protein stability index was determined as 0.534 ± 0.0076.
Sequence YCGGRWGGWEIG gave a protein stability index of 0.684 ± 0.0037.
With YCHLNLHGCKGC the figure was 0.636 ± 0.023; with YCTAGVCVKAGR, 0.765 ± 0.027.
Then YCVCACCASLLA, with 0.538 ± 0.025; and YDELEKADKQEE, with 0.6723 ± 0.0061.
As to YEEGRGEWIKKI, the protein stability index was 0.632 ± 0.051.
Then YESISGLGHLSG, with 0.6962 ± 0.005; and YEYPRVTFSPQT, with 0.7878 ± 0.005.
With YFESKWKYAGVR the figure was 0.699 ± 0.0074.
Take YFFDYGVSRVLS: the protein stability index was 0.584 ± 0.015.
Then YFSSGGITVSLC, with 0.664 ± 0.066.
Then YFVSCACSSYFV, with 0.601 ± 0.02.
Then YGAVRFTLIPLQ, with 0.639 ± 0.024; and YGCSLFCPDCSI, with 0.794 ± 0.15; and YGFLRSWCICDT, with 0.729 ± 0.098.
YGGDMHGNNFSG registered a protein stability index of 0.701 ± 0.011.
Then YGGRGFKGYYGG, with 0.776 ± 0.02; and YGIGNVNTGRGP, with 0.703 ± 0.011; and YGNTQFLTQTWY, with 0.705 ± 0.021.
With YGSYVVNSLYLS the figure was 0.616 ± 0.0097; with YGYMTNNCLLSI, 0.649 ± 0.041; with YIHGFRLFGCVD, 0.668 ± 0.031.
With YKGKFTILESLK the figure was 0.665 ± 0.027.
YKVKADRVRHRR displayed a protein stability index of 0.692 ± 0.013.
Then YLALSAPKERTH, with 0.703 ± 0.033; and YLFSTGSTLHSH, with 0.818 ± 0.088; and YLPKLSTYRLLR, with 0.654 ± 0.032.
As for YLPRPPPTTALL, the protein stability index stood at 0.74 ± 0.087.
Sequence YLQESLVEMWIV showed a protein stability index of 0.65 ± 0.056.
Then YLSFYRLLDSST, with 0.664 ± 0.007.
YLSPSTPLPVVL gave a protein stability index of 0.64 ± 0.1.
On to YLTCTLLSQPIY, for which the protein stability index was found to be 0.542 ± 0.027.
With YLVGVRDSFALR the figure was 0.715 ± 0.02; with YMGGGGASGAPA, 0.667 ± 0.047; with YNKKKKRYKKKF, 0.72 ± 0.0076.
Then YNMGILASQGCG, with 0.665 ± 0.046.
Then YNSRKQKKREKK, with 0.706 ± 0.027.
Sequence YPIFSPFSLPAL displayed a protein stability index of 0.59 ± 0.0073.
In the case of YPLPPPRPPCLP, the protein stability index came to 0.664 ± 0.063.
Then YPYRKRTIGVRT, with 0.595 ± 0.015; and YQRENYERKGYR, with 0.681 ± 0.067.
With YQVTEEKLIMTQ the figure was 0.674 ± 0.036; with YREVGGVAERRR, 0.695 ± 0.044.
With YRGSNWEGDTPS the figure was 0.667 ± 0.054; with YRPPPLSPPSPP, 0.695 ± 0.013; with YRSVLGREEQLI, 0.7 ± 0.057.
Regarding YRYGVSWFDWRI, the protein stability index was 0.784 ± 0.058.
Take YSEKFKDRFKED: the protein stability index worked out at 0.67 ± 0.015.
With YSGRCGVKLFNG the figure was 0.705 ± 0.073; with YSGSPPFPLSRL, 0.801 ± 0.027; with YSIAYGVLWRYR, 0.5687 ± 0.0051.
With YSLIPLSSISQH, the protein stability index was 0.685 ± 0.074.
With YSNCPQPRVISD the figure was 0.6 ± 0.063; with YSPSCPRTSPLL, 0.726 ± 0.046.
Then YSQSRPYFRIPG, with 0.647 ± 0.029.
With YSSGKPMEITIA the figure was 0.678 ± 0.084; with YTHIRGVLFGVR, 0.704 ± 0.034.
As for YTSHPVLPEVNG, the protein stability index is 0.695 ± 0.035.
Then YTSTPTLYTRLW, with 0.689 ± 0.014; and YTWHKLFFAYAI, with 0.528 ± 0.0059.
In the case of YVLSVKEGTNLP, the protein stability index amounted to 0.709 ± 0.023.
Regarding YVSYVFDYEVRH, the protein stability index is 0.709 ± 0.051.
With YVTSKLMNLVLY the figure was 0.662 ± 0.066; with YVVWGGVQGSVL, 0.747 ± 0.046; with YWSFRKGGLALY, 0.651 ± 0.019.
